A word on the Kd: it is the free concentration of one partner at which half of the binding sites on the other are occupied at equilibrium, for simple one-to-one binding. One may read the stoichiometry N as the number of molecules, sites or subunits per partner or assembly.

We go through 3 molecules from article PMC10348681, “Reversible phase separation of ESCRT protein ALIX through tyrosine phosphorylation” (Science Advances, 2023).

Common to all, as to conditions: both partners purified
The target in test [1] is T1, ALIX1−868∗^Strep (full-length ALIX with P801G and a C-terminal strep tag) (UniProt Q8WUM4 1-868, P801G).
T1 construct: the asterisk denotes P801G; Monomeric by AUC; source: E. coli, purified (Strep-Tactin Sepharose, Q-Sepharose HP, Superdex 200); not shown: Strep tag, C-terminal, kept
T1 sequence (looked up): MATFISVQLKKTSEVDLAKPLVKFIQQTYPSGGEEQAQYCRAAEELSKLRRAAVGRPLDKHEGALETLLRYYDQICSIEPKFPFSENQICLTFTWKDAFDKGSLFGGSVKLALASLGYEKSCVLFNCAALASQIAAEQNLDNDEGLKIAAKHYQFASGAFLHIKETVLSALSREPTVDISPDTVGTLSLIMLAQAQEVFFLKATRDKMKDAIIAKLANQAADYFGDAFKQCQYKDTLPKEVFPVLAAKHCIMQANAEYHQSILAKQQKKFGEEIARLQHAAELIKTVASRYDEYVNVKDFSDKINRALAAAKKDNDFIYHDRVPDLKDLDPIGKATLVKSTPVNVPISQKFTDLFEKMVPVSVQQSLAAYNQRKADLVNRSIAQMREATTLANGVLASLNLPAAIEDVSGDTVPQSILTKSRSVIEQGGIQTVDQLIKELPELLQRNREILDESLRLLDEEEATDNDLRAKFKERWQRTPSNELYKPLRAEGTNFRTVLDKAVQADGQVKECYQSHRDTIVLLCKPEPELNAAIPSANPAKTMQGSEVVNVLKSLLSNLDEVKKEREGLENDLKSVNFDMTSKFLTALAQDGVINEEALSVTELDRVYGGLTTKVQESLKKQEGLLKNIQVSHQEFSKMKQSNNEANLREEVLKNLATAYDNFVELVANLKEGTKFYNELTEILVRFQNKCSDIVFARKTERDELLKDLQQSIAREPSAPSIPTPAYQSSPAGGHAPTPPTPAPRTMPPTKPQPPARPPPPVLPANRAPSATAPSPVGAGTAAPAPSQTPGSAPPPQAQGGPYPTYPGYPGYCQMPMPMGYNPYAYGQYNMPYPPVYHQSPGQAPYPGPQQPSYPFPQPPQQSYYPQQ
In words: NMR titration; 30 μM 15N/2H-labeled CHMP4 construct with 90 μM unlabeled ALIX1-868* Strep; cross-peak heights; 30°C, 20 mM sodium phosphate (pH 6.5), 1 mM TCEP, 2 mM EDTA.

Test [2] has as its target T1, ALIX1−868∗^Strep (full-length ALIX with …). In words: ITC; as the other ITC but with 150 mM NaCl; CHMP4C construct injected into ALIX1-868* Strep; 25°C; for the AAA mutant 1500 μM into 300 μM ALIX. A general note: Isothermal titration calorimetry measures the heat released or taken up as one component is titrated into another.
For test [3] the target is unchanged. In words: ITC; 300 to 500 μM CHMP4 construct injected into 30 to 50 μM ALIX1-868* Strep or Bro1 in the cell; 25°C; 20 mM sodium phosphate (pH 6.5), 1 mM TCEP, 2 mM EDTA; independent site binding model.
Test [4] concerns the target T2, ALIX-Bro1 (Bro1 domain of ALIX) (UniProt Q8WUM4 3-392).
T2 construct: Bro1 domain of ALIX; residues up to 349 are spoken of
T2 sequence (looked up): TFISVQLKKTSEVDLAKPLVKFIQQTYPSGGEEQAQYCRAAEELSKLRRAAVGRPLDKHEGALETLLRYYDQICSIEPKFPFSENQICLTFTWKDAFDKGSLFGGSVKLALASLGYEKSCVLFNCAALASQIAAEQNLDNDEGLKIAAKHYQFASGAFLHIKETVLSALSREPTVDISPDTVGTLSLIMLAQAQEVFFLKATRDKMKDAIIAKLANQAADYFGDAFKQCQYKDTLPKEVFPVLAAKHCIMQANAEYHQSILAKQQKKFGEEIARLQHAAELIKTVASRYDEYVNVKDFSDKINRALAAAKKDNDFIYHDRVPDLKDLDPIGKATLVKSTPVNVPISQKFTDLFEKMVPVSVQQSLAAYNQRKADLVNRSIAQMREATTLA
Described as above.

B1: CHMP4C121−233^S191C,AAA (domain or fragment, UniProt Q96CF2 121-233, looked up)
chain: ENMDLNKIDDLMQEITEQQDIAQEISEAFSQRVGFGDDFDEDELMAELEELEQEELNKKMTNIRLPNVPSCSLPAQPNRKPGMSSTARRSRAASSQRAEEEDDDAKQAAAAAT
notes: codon-optimized synthetic gene; also called CHMP4C with three alanine substitutions in its α6 motif (I225A, L228A, W231A); not shown: GB1, N-terminal, cleaved
In the case of B1, the binding result in test [1] was “binds”.

B2: CHMP4C121−233^S191C (domain or fragment, UniProt Q96CF2 121-233, looked up)
chain: ENMDLNKIDDLMQEITEQQDIAQEISEAFSQRVGFGDDFDEDELMAELEELEQEELNKKMTNIRLPNVPSCSLPAQPNRKPGMSSTARRSRAASSQRAEEEDDDIKQLAAWAT
notes: codon-optimized synthetic gene; Monomeric by AUC; also called charged multivesicular body protein 4C C-terminal fragment; not shown: GB1, N-terminal, cleaved
For the molecule B2, the Kd in test [2] worked out at 6100 ± 700 nM; in test [3], 600 ± 100 nM; in test [4], 900 ± 100 nM. The “stoichiometry N” value in test [3] is about 1.

B3: CHMP4B121−224^S184C (domain or fragment, UniProt Q9H444 121-224, looked up)
chain: DNMDIDKVDELMQDIADQQELAEEISTAISKPVGFGEEFDEDELMAELEELEQEELDKNLLEICGPETVPLPNVPSIALPSKPAKKKEEEDDDMKELENWAGSM
notes: codon-optimized synthetic gene; Monomeric by AUC; also called charged multivesicular body protein 4B C-terminal fragment; not shown: GB1, N-terminal, cleaved
B3: the Kd amounted to 900 ± 100 nM in test [3] and 1000 ± 200 nM in test [4]. For the same molecule, the “stoichiometry N” value in test [3] was about 1.
